Measurements: publication PMC10502760, “MdNAC104 positively regulates apple cold tolerance via CBF‐dependent and CBF‐independent pathways”

T1: MdNAC104-His (Malus domestica, UniProt D9ZJ88 1-204)
T1 sequence: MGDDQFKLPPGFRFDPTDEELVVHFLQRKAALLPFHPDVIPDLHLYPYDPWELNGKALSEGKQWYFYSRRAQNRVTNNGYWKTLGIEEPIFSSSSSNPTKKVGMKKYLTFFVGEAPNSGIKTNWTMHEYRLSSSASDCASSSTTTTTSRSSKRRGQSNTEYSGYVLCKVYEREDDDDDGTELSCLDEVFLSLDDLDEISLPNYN


Biological target: T1, MdNAC104-His
Assay: EMSA; LightShift Chemiluminescent EMSA kit (Thermo) per manufacturer; buffer, salt, pH and temperature not stated
Details: protein: recombinant; tags: His (pET32a); chain copies: 2; label: biotin; blunt

| Binder | binding result |
| --- | --- |
| MdANS-b-P4 (dsDNA) DNA 1: GATTCCTATATATACGTAACTAGCTCATAG DNA 2: CTATGAGCTAGTTACGTATATATAGGAATC | binds |
| MdCHS-b-P2 (dsDNA) DNA 1: GATGTGGAACATGTGTGGCTATTAGGTTGGTATTCACACGAAATACGACCTACTATATAC DNA 2: GTATATAGTAGGTCGTATTTCGTGTGAATACCAACCTAATAGCCACACATGTTCCACATC | binds |
| MdCBF3-P1 (dsDNA) DNA 1: TATATATATTCATGTGGATTGGGTGATGAG DNA 2: CTCATCACCCAATCCACATGAATATATATA | binds |
| MdF3H-a-P2 (dsDNA) DNA 1: ACATAGATGAATACATGTCACCGCCATAAT DNA 2: ATTATGGCGGTGACATGTATTCATCTATGT | binds |
| MdANS-b-P1 (dsDNA) DNA 1: GGTGAGATGTCACATGTACAACAGCCACAT DNA 2: ATGTGGCTGTTGTACATGTGACATCTCACC | binds |
| MdCBF1-P1-mut (dsDNA) DNA 1: CATCCCCAAAAAAAGTACACAACCAACACA DNA 2: TGTGTTGGTTGTGTACTTTTTTTGGGGATG | no binding |
| MdF3H-a-P1 (dsDNA) DNA 1: CAAACACAAAACGTATTTCGTTTGAGCCAA DNA 2: TTGGCTCAAACGAAATACGTTTTGTGTTTG | binds |
| MdCBF1-P1 (dsDNA) DNA 1: CATCCCCACGAAAAGTACACAACCAACACA DNA 2: TGTGTTGGTTGTGTACTTTTCGTGGGGATG | binds |
| MdF3H-a-P3 (dsDNA) DNA 1: GTTACCCCATATGACCATGTAACCGTCTGA DNA 2: TCAGACGGTTACATGGTCATATGGGGTAAC | binds |
| MdCBF3-P1-mut (dsDNA) DNA 1: TATATATATTAAAAAAGATTGGGTGATGAG DNA 2: CTCATCACCCAATCTTTTTTAATATATATA | no binding |
| MdPRXR1.1-P2 (dsDNA) DNA 1: TTTGTAACTAACGGAAAACTTAATACAAAA DNA 2: TTTTGTATTAAGTTTTCCGTTAGTTACAAA | binds |
| MdF3H-a-P5 (dsDNA) DNA 1: CAATTGAGTAATTTCGTTCTTAATTCTTTT DNA 2: AAAAGAATTAAGAACGAAATTACTCAATTG | binds |
| MdF3H-a-P7 (dsDNA) DNA 1: CAAAAATATTTTCCGTAATGAAGTGTCTTG DNA 2: CAAGACACTTCATTACGGAAAATATTTTTG | binds |
| MdCHI-P1 (dsDNA) DNA 1: CTTTTGAGTTGGTTTCGTTGAAGACTTTTT DNA 2: AAAAAGTCTTCAACGAAACCAACTCAAAAG | binds |
| MdFSD2-P3 (dsDNA) DNA 1: GTCATTTTGGACGAAAACTTTAATGAAAAT DNA 2: ATTTTCATTAAAGTTTTCGTCCAAAATGAC | binds |
| MdCHS-b-P4 (dsDNA) DNA 1: TCCTTTTTACGAAAGTGACATTACAACGAA DNA 2: TTCGTTGTAATGTCACTTTCGTAAAAAGGA | binds |
